Key:
[1] = molecular target: T1, N protein (nucleocapsid protein) of human RSV Long strain (human RSV Long strain, UniProt P03418 1-391); test: coexpression in E. coli, copurification of N with the P fragment
T1 construct: also called native N protein

[2] = molecular target: N protein deleted of 27 residues at the C-terminal end (human RSV Long strain, UniProt P03418 1-364); test: interaction of truncated N with P (method not detailed)
[3] = molecular target: T2, N protein of the measles virus (measles virus strain Edmonston B, UniProt P0DXN6 1-525); test: coexpression in E. coli and copurification of N with the P fragment
T2 sequence: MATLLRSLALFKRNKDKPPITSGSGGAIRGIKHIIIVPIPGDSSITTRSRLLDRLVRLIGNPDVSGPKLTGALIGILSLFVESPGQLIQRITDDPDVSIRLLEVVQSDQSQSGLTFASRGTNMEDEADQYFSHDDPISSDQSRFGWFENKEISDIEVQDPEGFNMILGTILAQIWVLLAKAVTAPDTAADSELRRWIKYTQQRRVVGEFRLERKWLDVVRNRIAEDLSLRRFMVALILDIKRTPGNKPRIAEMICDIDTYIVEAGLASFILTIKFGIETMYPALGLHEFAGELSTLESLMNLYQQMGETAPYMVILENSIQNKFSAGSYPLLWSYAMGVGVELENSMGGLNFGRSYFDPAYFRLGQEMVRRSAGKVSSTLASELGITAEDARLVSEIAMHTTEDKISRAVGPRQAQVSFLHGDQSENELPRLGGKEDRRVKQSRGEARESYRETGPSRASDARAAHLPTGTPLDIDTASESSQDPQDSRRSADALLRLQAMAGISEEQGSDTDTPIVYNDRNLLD

B1: protein P (fragment 161-241) fused to GST (other)
chain: SARDGIRDAMVGLREEMIEKIRTEALMTNDRLEAMARLRNEESEKMAKDTSDEVSLNPTSEKLNNLLEGNDSDNDLSLEDF
notes: not shown: GST carrier at the N end (from pGEX-4T-3) and the vector-encoded junction with the thrombin site
B1: binds [1].

B2: P protein (phosphoprotein) of human RSV Long strain (other)
chain: SARDGIRDAMVGLREEMIEKIRTEALMTNDRLEAMARLRNEESEKMAKDTSDEVSLNPTSEKLNNLLEGNDSDNDLSLEDF
B2: no binding [2].

B3: P protein of the measles virus deleted of its N-terminal part as far as residue 456 (inclusive) (other)
chain: GPASRSVIRSIIKSSRLEEDRKRYLMTLLDDIKGANDLAKFHQMLMKIIMK
notes: also called PΔ457N
B3: no binding [3].
